This note sets out measurements from paper PMC10175746.

The test addresses pyruvate kinase isoform M2 (PKM2) (mouse (endogenous in Th17 cells)) (UniProt P52480).

Sequence of pyruvate kinase isoform M2 (PKM2), P52480 1-531 (enzyme; other documents disagree on this pair) (P52480 whole entry, canonical isoform): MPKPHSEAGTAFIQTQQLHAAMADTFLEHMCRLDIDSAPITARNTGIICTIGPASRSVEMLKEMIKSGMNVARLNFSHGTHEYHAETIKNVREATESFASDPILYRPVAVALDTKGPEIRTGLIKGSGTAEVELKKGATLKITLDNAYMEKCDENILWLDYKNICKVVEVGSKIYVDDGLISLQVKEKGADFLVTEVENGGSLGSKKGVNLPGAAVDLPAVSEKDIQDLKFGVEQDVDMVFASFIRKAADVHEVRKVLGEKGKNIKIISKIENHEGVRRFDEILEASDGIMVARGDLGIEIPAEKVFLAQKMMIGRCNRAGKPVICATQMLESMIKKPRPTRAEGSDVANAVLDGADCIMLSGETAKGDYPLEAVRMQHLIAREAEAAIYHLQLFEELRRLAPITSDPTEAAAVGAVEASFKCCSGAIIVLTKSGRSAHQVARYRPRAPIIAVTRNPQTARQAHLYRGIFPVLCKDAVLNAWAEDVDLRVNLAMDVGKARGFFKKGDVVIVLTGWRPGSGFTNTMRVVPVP

For “pyruvate kinase isoform M2 (PKM2), P52480 1-531 (enzyme; other documents disagree on this pair)”, the stoichiometry N (commonly the number of molecules, sites or subunits per partner or assembly) worked out at 4.
